Our source for the Kd values is patent publication US20250276073A1 (Bicycle, published 2025).

To fix the notation:
B1: BCY23186 (peptide)
peptide: Ac-CP[Hyp]DA[Phe(4-CONH2)]LGC[Tle]SYCEPW-NH2
modifications: linker 1-9-13 via TATB
SMILES: CC(=O)N[C@H]1CSCC(=O)N2CN3CN(C2)C(=O)CSC[C@@H](C(=O)N[C@@H](CCC(=O)O)C(=O)N2CCC[C@H]2C(=O)N[C@@H](Cc2c[nH]c4ccccc24)C(N)=O)NC(=O)[C@H](Cc2ccc(O)cc2)NC(=O)[C@H](CO)NC(=O)[C@H](C(C)(C)C)NC(=O)[C@H](CSCC3=O)NC(=O)CNC(=O)[C@H](CC(C)C)NC(=O)[C@H](Cc2ccc(C(N)=O)cc2)NC(=O)[C@H](C)NC(=O)[C@H](CC(=O)O)NC(=O)[C@@H]2C[C@@H](O)CN2C(=O)[C@@H]2CCCN2C1=O
notes: Bicyclic peptide
B2: BCY23201 (peptide)
peptide: CPXDAYLGCXSXCEPW
modifications: CP[HyP]DAYLGC[tBuGly]S[pCaPhe]CEPW: HyP at 3, tBuGly at 10, pCaPhe at 12; N-terminal acetyl; C-terminal CONH2; Cys 1, 9, 13 bonded to TATB scaffold
notes: Bicyclic peptide
B3: BCY23187 (peptide)
peptide: Ac-CP[Hyp]DA[Phe(4-COOH)]LGC[Tle]SYCEPW-NH2
modifications: linker 1-9-13 via TATB
SMILES: CC(=O)N[C@H]1CSCC(=O)N2CN3CN(C2)C(=O)CSC[C@@H](C(=O)N[C@@H](CCC(=O)O)C(=O)N2CCC[C@H]2C(=O)N[C@@H](Cc2c[nH]c4ccccc24)C(N)=O)NC(=O)[C@H](Cc2ccc(O)cc2)NC(=O)[C@H](CO)NC(=O)[C@H](C(C)(C)C)NC(=O)[C@H](CSCC3=O)NC(=O)CNC(=O)[C@H](CC(C)C)NC(=O)[C@H](Cc2ccc(C(=O)O)cc2)NC(=O)[C@H](C)NC(=O)[C@H](CC(=O)O)NC(=O)[C@@H]2C[C@@H](O)CN2C(=O)[C@@H]2CCCN2C1=O
notes: Bicyclic peptide
B4: BCY23185 (peptide)
peptide: CPXDAXLGCXSYCEPW
modifications: CP[HyP]DA[DOPA]LGC[tBuGly]SYCEPW: HyP at 3, DOPA at 6, tBuGly at 10; N-terminal acetyl; C-terminal CONH2; Cys 1, 9, 13 bonded to TATB scaffold
notes: Bicyclic peptide
B5: BCY23200 (peptide)
peptide: CPXDAYLGCXSXCEPW
modifications: CP[HyP]DAYLGC[tBuGly]S[DOPA]CEPW: HyP at 3, tBuGly at 10, DOPA at 12; N-terminal acetyl; C-terminal CONH2; Cys 1, 9, 13 bonded to TATB scaffold
notes: Bicyclic peptide
B6: BCY23224 (peptide)
peptide: CPXDAYLGCXXYCEPW
modifications: CP[HyP]DAYLGC[tBuGly][HSer]YCEPW: HyP at 3, tBuGly at 10, HSer at 11; N-terminal acetyl; C-terminal CONH2; Cys 1, 9, 13 bonded to TATB scaffold
notes: Bicyclic peptide
B7: BCY23188 (peptide)
peptide: CPXDAXLGCXSYCEPW
modifications: CP[HyP]DA[hTyr]LGC[tBuGly]SYCEPW: HyP at 3, hTyr at 6, tBuGly at 10; N-terminal acetyl; C-terminal CONH2; Cys 1, 9, 13 bonded to TATB scaffold
notes: Bicyclic peptide
B8: BCY23231 (peptide)
peptide: CPXDAYLGCXSYCXPW
modifications: CP[HyP]DAYLGC[tBuGly]SYC[Gla]PW: HyP at 3, tBuGly at 10, Gla at 14; N-terminal acetyl; C-terminal CONH2; Cys 1, 9, 13 bonded to TATB scaffold
notes: Bicyclic peptide
B9: BCY23515 (peptide)
peptide: Ac-CP[Hyp]DAYLGC[Val(3-OH)]SYCEPW-NH2
modifications: linker 1-9-13 via TATB
SMILES: CC(=O)N[C@H]1CSCC(=O)N2CN3CN(C2)C(=O)CSC[C@@H](C(=O)N[C@@H](CCC(=O)O)C(=O)N2CCC[C@H]2C(=O)N[C@@H](Cc2c[nH]c4ccccc24)C(N)=O)NC(=O)[C@H](Cc2ccc(O)cc2)NC(=O)[C@H](CO)NC(=O)[C@H](C(C)(C)O)NC(=O)[C@H](CSCC3=O)NC(=O)CNC(=O)[C@H](CC(C)C)NC(=O)[C@H](Cc2ccc(O)cc2)NC(=O)[C@H](C)NC(=O)[C@H](CC(=O)O)NC(=O)[C@@H]2C[C@@H](O)CN2C(=O)[C@@H]2CCCN2C1=O
notes: Bicyclic peptide

Starred links: 1 amine or outer side, 2 acyl side, 3 side chain; linkers in the order of their positions; H or OH if unused. Positions of bridges follow the written chain, without caps; N, C: chain ends. Non-standard residues stand in square brackets, D forms with d. TATB = O=C(C[*:1])N1CN(C(=O)C[*:2])CN(C(=O)C[*:3])C1; Phe(4-CONH2) = NC(=O)c1ccc(C[C@H](N)C(=O)O)cc1; Phe(4-COOH) = N[C@@H](Cc1ccc(C(=O)O)cc1)C(=O)O; Val(3-OH) = CC(C)(O)[C@H](N)C(=O)O; Hyp = O=C(O)[C@@H]1C[C@@H](O)CN1; Tle = CC(C)(C)[C@H](N)C(=O)O

For orientation: Kd means the equilibrium constant for the complex coming apart.

T1 sequence (P02786 89-760 limits assumed): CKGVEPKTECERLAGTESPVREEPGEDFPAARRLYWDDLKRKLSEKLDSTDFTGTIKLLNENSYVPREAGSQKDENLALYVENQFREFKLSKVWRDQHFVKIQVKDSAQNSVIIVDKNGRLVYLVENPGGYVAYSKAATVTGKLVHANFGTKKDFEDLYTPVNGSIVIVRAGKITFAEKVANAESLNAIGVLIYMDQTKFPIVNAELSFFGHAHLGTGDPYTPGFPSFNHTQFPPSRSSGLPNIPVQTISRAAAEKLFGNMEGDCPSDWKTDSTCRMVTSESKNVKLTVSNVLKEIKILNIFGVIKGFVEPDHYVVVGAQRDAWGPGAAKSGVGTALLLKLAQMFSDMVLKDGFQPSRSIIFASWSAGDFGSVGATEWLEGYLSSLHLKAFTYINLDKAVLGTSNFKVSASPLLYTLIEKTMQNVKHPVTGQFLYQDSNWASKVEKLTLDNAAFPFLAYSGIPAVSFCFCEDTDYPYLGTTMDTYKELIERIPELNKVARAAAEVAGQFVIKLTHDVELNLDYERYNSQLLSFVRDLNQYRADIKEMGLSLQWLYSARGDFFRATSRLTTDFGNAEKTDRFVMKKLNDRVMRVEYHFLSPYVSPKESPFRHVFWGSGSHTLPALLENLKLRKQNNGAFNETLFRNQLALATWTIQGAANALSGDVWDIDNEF

The experiment concerns the target T1, Recombinant human His-tagged TfR1 (a.a. 89-760) (ACRO Biosystems, CD1-H5243) (human, UniProt P02786 89-760).
T1 construct: range 89-760; Bought protein; Captured and amine-coupled on an NTA chip; also called human TfR1; transferrin receptor 1; not shown: His tag (printed 'Hiss-tagged')
Briefly: SPR (Biacore), TfR1 captured/coupled on NTA chip, peptide as analyte. On the technique in general: SPR reads the build-up and loss of mass on a sensor chip optically.
As to B1, the Kd was 27 nM.

On to B2, for which the Kd worked out at 17 nM.

B3: the Kd came out at 38 nM.

Consider B4, for which the Kd stood at 12 nM.

As for B5, the dissociation constant Kd is 9.5 nM.

For the molecule B6, the Kd was determined as 1140 nM.

Take B7: the Kd came out at 109 nM.

Regarding B8, the dissociation constant Kd was 25 nM.

In the case of B9, the Kd is 85 nM.
